Data from PMC6358605, “MANF antagonizes nucleotide exchange by the endoplasmic reticulum chaperone BiP” (Nature Communications, 2019).

Tests used:
[1] = molecular target: T1, BiP NBD (28–413) (Chinese hamster, UniProt G3I8R9 28-413); assay: BLI; sequential dipping: streptavidin biosensors loaded with biotinylated MANF, SAP or SAPLIP, dipped in BiP SBD, buffer, BiP NBD with 2 mM ATP, 2 mM ATP, BiP NBD with 2 mM ADP, 2 mM ADP; HKMT buffer; settings: both partners purified
T1 construct: UK2039 is named for the crystals and the MABA-ADP assay; also called UK2039; source: E. coli M15, purified (nickel chelating, tag cleavage, anion exchange, SEC); not shown: His6-Smt3, N-terminal, cleaved

[2] = molecular target: the molecule itself; assay: crystal structure; lidless BiP^V461F (apo) crystals from a co-crystallisation mix with MANF or SAP; only BiP^V461F present in the crystal; contacts between protomers of the lattice

T1 sequence (G3I8R9 28-413): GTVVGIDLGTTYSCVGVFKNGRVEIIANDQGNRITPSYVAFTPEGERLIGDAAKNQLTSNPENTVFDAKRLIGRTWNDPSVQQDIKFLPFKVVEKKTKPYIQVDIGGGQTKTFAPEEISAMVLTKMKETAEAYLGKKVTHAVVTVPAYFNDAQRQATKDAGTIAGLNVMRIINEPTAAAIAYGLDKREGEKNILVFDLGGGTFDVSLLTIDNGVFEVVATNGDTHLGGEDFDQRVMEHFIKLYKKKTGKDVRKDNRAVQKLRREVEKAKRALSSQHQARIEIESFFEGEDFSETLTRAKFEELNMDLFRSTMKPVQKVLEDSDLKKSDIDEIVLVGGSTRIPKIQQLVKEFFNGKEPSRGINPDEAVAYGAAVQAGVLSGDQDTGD

| binding result [1] | Binder | binding result [2] |
| --- | --- | --- |
| binds | biotinylated AviTag-SAP^119–179 (domain or fragment, mouse, UniProt Q9CXI5 119-179, looked up, also: biotin on AviTag lysine (tag not in chain), C-terminal SAP (SAF-A/B, Acinus, and PIAS) domain of MANF, mouse, residues 119-179; also called SAP domain of MANF; UK2005; source: E. coli Origami B (DE3), purified (GSTrap, TEV cleavage), biotinylated in vitro with BirA; not shown: GST, N-terminal, cleaved; AviTag, N-terminal, kept) DKQIDLSTVDLKKLRVKELKKILDDWGEMCKGCAEKSDYIRKINELMPKYAPKAASARTDL |  |
|  | lidless Chinese hamster BiP^V461F (28–549) (domain or fragment, BiP, Chinese hamster, residues 28-549 (C-terminal alpha-helical lid truncated), V461F; also called BiP^V461F (apo); UK2121; source: E. coli M15, purified (nickel chelating, anion exchange, SEC)) not shown | binds |
| binds | biotinylated AviTag-MANF^22–179 (natural protein, mouse, UniProt Q9CXI5 22-179, looked up, biotin (on the AviTag, by E. coli BirA), mesencephalic astrocyte-derived neurotrophic factor (MANF), mouse, residues 22-179; Ligand on streptavidin BLI sensors; also called mMANF; UK1987; source: E. coli Origami B (DE3), purified (GSTrap, TEV cleavage), biotinylated in vitro with BirA; not shown: GST, N-terminal, cleaved; AviTag, N-terminal, kept) LRPGDCEVCISYLGRFYQDLKDRDVTFSPATIEEELIKFCREARGKENRLCYYIGATDDAATKIINEVSKPLAHHIPVEKICEKLKKKDSQICELKYDKQIDLSTVDLKKLRVKELKKILDDWGEMCKGCAEKSDYIRKINELMPKYAPKAASARTDL |  |
